Test [1] concerns the target T1, MACHα1 (Homo sapiens, UniProt Q14790).
T1 construct: expressed in transfected cells; host or cells: SFY526 yeast
Briefly: Two-hybrid β-galactosidase filter assay (FIG. 5), binding to MACHα1. Conditions: two hybrid test. As for the experimental part:
(§1) In FIG. 5, there is shown the results of the interaction of MORT-1 and MACH within transfected yeast cells. Briefly, MORT-1 and MACHβ1 and their deletion constructs, as well as MACHα1, a MACHα1 mutant in which the catalytic cysteine Cys360 is replaced by Ser (MACHα1 (C360S)) and the intracellular domain of human FAS-R (Fas-IC), were expressed within transfected SFY526 yeast in Gal4 DNA binding domain and activation domain constructs (pGBT9 and pGAD-GH). Their interaction was assessed by a β-galactosidase expression filter assay as described in Boldin et al (1995b). The results are presented in terms of the time required for the development of strong color. […] None of the inserts examined interacted with a number of tested negative controls, including the intracellular domains of human p55 TNF receptor, p75 TNF receptor and CD40, and lamin, cyclin D and ‘empty’ Gal4 vectors. MACHβ1 was cloned by two hybrid screening of a Gal4 AD-tagged human B cell library (Durfee et al, 1993) for proteins that bind to MORT-1, using the HF7c Yeast reporter strain. Except where otherwise indicated, all experimental procedures for the findings presented are as described above (see also Boldin et al, 1995). […] MACHβ1 also self-associated in the transfected yeast. […] Expression of MACHβ1 molecules in mammalian cells yielded a 34 kDa protein that bound to MORT-1 molecules co-expressed with it. […]

In test [2] the target is T2, MACHα1 (C360S) (Homo sapiens, UniProt Q14790, C360S).
T2 construct: expressed in transfected cells; host or cells: SFY526 yeast
In words: Two-hybrid β-galactosidase filter assay (FIG. 5), binding to MACHα1 (C360S). To be noted: two hybrid test. The protocol:
as §1

For test [3], the target named is T3, MORT1DD (130-245) (Homo sapiens, UniProt Q13158).
T3 construct: 130-245 MORT-1; expressed in transfected cells
T3 sequence (Q13158 82-197): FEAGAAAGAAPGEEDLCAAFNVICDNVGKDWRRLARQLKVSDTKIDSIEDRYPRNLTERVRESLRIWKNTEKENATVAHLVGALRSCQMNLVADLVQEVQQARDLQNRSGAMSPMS
In words: Two-hybrid β-galactosidase expression filter assay in SFY526 yeast, DNA-binding domain hybrid MORT1DD (130-245). From the text:
To isolate proteins interacting with the intracellular domain of the FAS-R, the yeast two-hybrid system was used (Fields and Song, 1989). […] In this system, the genes for the candidate interacting proteins are cloned into separate expression vectors. In one expression vector, the sequence of the one candidate protein is cloned in phase with the sequence of the GAL4 DNA-binding domain to generate a hybrid protein with the GAL4 DNA-binding-domain, and in the other vector, the sequence of the second candidate protein is cloned in phase with the sequence of the GAL4 activation domain to generate a hybrid protein with the GAL4-activation domain. The two hybrid vectors are then co-transformed into a yeast host strain having a lacZ or HIS3 reporter gene under the control of upstream GAL4 binding sites. […]
The yeast two-hybrid test was further applied to evaluate the specificity of binding of MACH to MORT-1, in particular, to define the region in MORT-1 to which MACH binds, as well as to determine which of the MACH ORFs interacts with MORT-1, the procedures being as set forth herein above in Examples 1 and 2. Briefly, various MORT-1 and MACH constructs were prepared for testing the interaction of the proteins encoded by the Gal4 DNA-binding domain and activation domain constructs within transfected SFY526 yeast cells as assessed by the β-galactosidase expression filter assay. […]

The text below walks through data of patent US7799901B2, “Modulators of the function of FAS receptors and other proteins” (Yeda Research and Development Co. Ltd., priority 1995, dated 2010).

T1 sequence (Q14790 217-479): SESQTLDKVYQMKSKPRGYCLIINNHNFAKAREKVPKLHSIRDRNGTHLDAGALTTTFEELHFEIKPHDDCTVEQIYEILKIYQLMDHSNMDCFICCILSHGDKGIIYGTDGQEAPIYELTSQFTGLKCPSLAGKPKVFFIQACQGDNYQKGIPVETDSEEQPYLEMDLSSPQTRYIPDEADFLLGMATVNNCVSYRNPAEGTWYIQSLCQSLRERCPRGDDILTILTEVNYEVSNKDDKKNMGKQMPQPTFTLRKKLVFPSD

As to “MACHα1: MACH isoform, cDNA SEQ ID NO: 14, amino acid SEQ ID NO: 7; contains CED3/ICE homology region”, the “binding to MACHα1 in transfected yeast (self-interaction)” value in test [1] was “did not exhibit self-interaction”.

B1: MACHα1 (C360S): MACHα1 mutant in which the catalytic cysteine Cys360 is replaced by Ser (protein)
chain: MDFSRNLYDIGEQLDSEDLASLKFLSLDYIPQRKQEPIKDALMLFQRLQEKRMLEESNLSFLKELLFRINRLDLLITYLNTRKEEMERELQTPGRAQISAYRVMLYQISEEVSRSELRSFKFLLQEEISKCKLDDDMNLLDIFIEMEKRVILGEGKLDILKRVCAQINKSLLKIINDYEEFSKERSSSLEGSPDEFSNGEELCGVMTISDSPREQDSESQTLDKVYQMKSKPRGYCLIINNHNFAKAREKVPKLHSIRDRNGTHLDAGALTTTFEELHFEIKPHDDCTVEQIYEILKIYQLMDHSNMDCFICCILSHGDKGIIYGTDGQEAPIYELTSQFTGLKCPSLAGKPKVFFIQASQGDNYQKGIPVETDSEEQPYLEMDLSSPQTRYIPDEADFLLGMATVNNCVSYRNPAEGTWYIQSLCQSLRERCPRGDDILTILTEVNYEVSNKDDKKNMGKQMPQPTFTLRKKLVFPSD
As for B1, the “binding to MACHα1 (C360S) in transfected yeast” value in test [2] is reported as “bound”.

B2: MACHβ1: MACH isoform, cDNA SEQ ID NO: 4, amino acid SEQ ID NO: 5; lacks the CED3/ICE homology region (protein)
chain: MDFSRNLYDIGEQLDSEDLASLKFLSLDYIPQRKQEPIKDALMLFQRLQEKRMLEESNLSFLKELLFRINRLDLLITYLNTRKEEMERELQTPGRAQISAYRVMLYQISEEVSRSELRSFKFLLQEEISKCKLDDDMNLLDIFIEMEKRVILGEGKLDILKRVCAQINKSLLKIINDYEEFSKERSSSLEGSPDEFSNDFGQSLPNEKQTSGILSDHQQSQFCKSTGESAQTSQH
For B2, the “development of color (interaction with DNA-binding domain hybrid)” value in test [3] was “−−− (“−−−” indicates the lack of development of color within 24 hrs. of the assay)”.
